Data published in patent publication US20220195388A1.
Blank lines part the entries; values can stand above or below the substance they belong to.

Assays:
[1] = biological target: CD3 (TCR/CD3 complex) on the surface of Jurkat cells, PBMCs and T responder cells (UniProt P07766); test: flow cytometry, freshly isolated PBMCs stained with PE-labeled OKT3 Fab-multimers, before D-biotin; only live (PI negative) cells shown
[2] = biological target: CD3 (TCR/CD3 complex) on the surface of Jurkat cells, PBMCs and T responder cells (UniProt P07766); test: flow cytometry, second staining with PE-labeled OKT3 Fab-multimers of PBMCs that had been stained, treated with D-biotin and washed (control); live cells
[3] = biological target: CD3 (TCR/CD3 complex) on the surface of Jurkat cells, PBMCs and T responder cells (UniProt P07766); test: flow cytometry, PBMCs stained with PE-labeled OKT3 Fab-multimers and then treated with D-biotin, which disrupts the Fab to Strep-Tactin bond; remaining PE signal on live cells
[4] = biological target: CD28 on the surface of PBMCs and T cells (human) (UniProt P10747); test: flow cytometry, selected CD28+ cells after D-biotin and washing, stained with an α-Ig kappa light chain mAb to detect remaining Fab monomers; live CD3+ cells. The same mAb on cells before selection (negative control, no Fab) gives 2.73 in the gate.
[5] = biological target: CD28 on the surface of PBMCs and T cells (human) (UniProt P10747); test: flow cytometry, freshly isolated PBMCs before selection stained with fluorescent αCD28 Fab-multimers; only live (PI negative) CD3+ cells shown
[6] = biological target: CD28 on the surface of PBMCs and T cells (human) (UniProt P10747); test: flow cytometry, CD28+ cells isolated by Fab-multimer magnetic selection, released with D-biotin, washed and stained again with CD28 Fab-multimers; live CD3+ cells

CD3 (TCR/CD3 complex) on the surface of Jurkat cells, PBMCs and T responder cells, sequence (P07766 23-207, one chain of several): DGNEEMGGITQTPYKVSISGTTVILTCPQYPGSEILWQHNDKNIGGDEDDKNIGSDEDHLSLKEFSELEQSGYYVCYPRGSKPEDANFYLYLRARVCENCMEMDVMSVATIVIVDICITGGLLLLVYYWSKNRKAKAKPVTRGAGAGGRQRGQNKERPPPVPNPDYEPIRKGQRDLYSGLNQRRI

percentage of cells within gate [1]: 64.5%
percentage of cells within gate [2]: 64.7%
percentage of cells within gate [3]: 0.005%
Substance: OKT3 Fab fragments multimerized with Strep-Tactin

percentage of cells within gate [4]: 5.91%
Substance: αCD28 Fab fragment derived from the monoclonal anti-human CD28 antibody CD28.3, heavy chain C-terminally fused to the Twin-Strep-tag (monomeric)

percentage of cells within gate [5]: 77.9%
percentage of cells within gate [6]: 96.7%
Substance: anti-CD28 Fab fragments (from CD28.3) multimerized with Strep-Tactin (from UniProt P22629 38-163)
